Our source for the Ka, koff and Kd values is paper PMC3464217 (2012).

Common to all, as to assay: SPR
Assay [1] addresses T1, recombinant gp160 (HIV (IIIB or MN/LAI)).
For assay [2], the target named is T1, recombinant gp160. The source holds these as a separate data set.
The target of assay [3] is T1, recombinant gp160. This is another data set of the same source.

B1: HY (antibody, V domains shown)
VH: QVQLEQSGAEVKKPGASVKVSCQASGYRFSHFTVHWVRQAPGQRFEWMGWINPYNGNKEFSAKFQDRVTFTADTSANTAYMELRSLRSADTAVYYCARVGEWGWDDSPYDNYYMDVWGKGTTVIVSS
VL: EIVLTQSPGTLSLSPGERATFSCRSSHSIRSRRVAWYQHKPGQAPRLVIHGVSNRASGISDRFSGSGSGTDFTLTITRVEPEDFALYYCQVYGASSYTFGQGTKLERK
Consider B1, for which the Ka in assay [1] came to 2.7e+06 M⁻¹. Also, the koff in assay [2] stood at 0.018 s⁻¹. For the same molecule, the Kd in assay [3] amounted to 370 nM.

B2: 7B2 (antibody, V domains shown)
VH: QVQLVQSGGGVFKPGGSLRLSCEASGFTFTEYYMTWVRQAPGKGLEWLAYISKNGEYSKYSPSSNGRFTISRDNAKNSVFLQLDRLSADDTAVYYCARADGLTYFSELLQYIFDLWGQGARVTVSS
VL: DIVMTQSPDSLAVSPGERATIHCKSSQTLLYSSNNRHSIAWYQQRPGQPPKLLLYWASMRLSGVPDRFSGSGSGTDFTLTINNLQAEDVAIYYCHQYSSHPPTFGHGTRVELR
In the case of B2, in assay [1], the Ka turned out to be 3.4e+09 M⁻¹. In addition, the koff in assay [2] stood at 4.9e-05 s⁻¹. In addition, in assay [3], the Kd worked out at 0.31 nM.

As usually defined, the koff is the rate constant with which the complex falls apart. As usually defined, the Kd is the free concentration of one partner at which half of the binding sites on the other are occupied at equilibrium, for simple one-to-one binding.
